Results as given in the supplement of paper PMC10126150.
± gives the standard deviation of the averaged measurements.

tested on: ATP; test: switch fluorescence ratio, 500 uM ATP over buffer (Cy3 cluster intensity, sum of 5 cycles each) (fold (ratio)); higher = stronger signal-on switching upon ATP binding; sequences stand for … in TCGTCGGCAGCGTCAGATGTGTATAAGAGACAGTTTTTTTTTTTTTTTTTTTTTTTTT…TC; details: aptamer strand: ATP DNA aptamer (quencher-CACCTGGGGGAGTATTGCGGAGGAAGG + anchor), 100 nM annealed; ATP concentration: 500 uM
Procedure, shortened: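 For every switch-domain sequence, the fluorescence ratio is the mean of per-cluster values, each being summed target-cycle Cy3 intensity over summed buffer-cycle Cy3 intensity. Clusters outside 100-1000 RFU were excluded. On a modified Illumina MiSeq flow-cell, the Cy3-labelled switching-strand clusters were annealed to 100 nM quencher-labelled ATP aptamer, imaged in selection buffer and then after 15 min with 500 uM ATP at 22 °C. Five such cycles were run, with NaOH stripping and re-annealing between them.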
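Also: ATP exposure 15 min at 22 °C before imaging.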

Sequence | switch fluorescence ratio
AAAAAAAAGC | 1.03 ± 0.038
AAAAAAAGGA | 1.01 ± 0.021
AAAAAAAGGC | 0.998 ± 0.042
AAAAAAATCG | 1.01 ± 0.028
AAAAAAATTT | 1 ± 0.029
AAAAAAGTGC | 1.04 ± 0.051
AAAAAAGTTC | 0.984 ± 0.022
AAAAAATACG | 1.09 ± 0.091
AAAAAATAG | 0.985 ± 0.013
AAAAAATTAG | 0.996 ± 0.05
AAAAAATTAT | 1.03 ± 0.087
AAAAACGCTA | 1.14 ± 0.026
AAAAACTAGT | 1.04 ± 0.035
AAAAACTTGT | 1.03 ± 0.034
AAAAAGAAGA | 0.976 ± 0.033
AAAAAGCGGT | 0.984 ± 0.029
AAAAAGCTCG | 0.985 ± 0.064
AAAAAGGGGT | 1.15 ± 0.34
AAAAAGGTTA | 0.998 ± 0.025
AAAAAGTCAT | 0.967 ± 0.021
AAAAATATTT | 1.61 ± 0.86
AAAAATCGAG | 1.0015 ± 0.00019
AAAAATCGGT | 0.996 ± 0.044
AAAAATGCTT | 1.02 ± 0.066
AAAAATGGGG | 0.972 ± 0.0098

Sequence | switch fluorescence ratio
AAAAATGGGT | 1 ± 0.016
AAAAATGGTT | 1.02 ± 0.014
AAAACAAATA | 0.9968 ± 0.0089
AAAACAAGGA | 1.01 ± 0.041
AAAACAGCCG | 0.957 ± 0.1
AAAACCAGAC | 1.53 ± 0.078
AAAACGAAAT | 1.02 ± 0.032
AAAACGAATG | 1.05 ± 0.065
AAAACGGATT | 0.977 ± 0.014
AAAACGTGGG | 1.02 ± 0.022
AAAACTCCGA | 1.07 ± 0.097
AAAACTTCTT | 1 ± 0.013
AAAACTTTGC | 1.02 ± 0.039
AAAAGAATGT | 0.993 ± 0.021
AAAAGACCCT | 1.04 ± 0.071
AAAAGACGGG | 1.03 ± 0.022
AAAAGAGGGG | 1 ± 0.031
AAAAGATCAT | 0.999 ± 0.012
AAAAGGACGG | 1.044 ± 0.0036
AAAAGGAG | 1.01 ± 0.016
AAAAGGAGGG | 0.999 ± 0.013
AAAAGGGCGC | 1.03 ± 0.045
AAAAGGGGG | 0.976 ± 0.018
AAAAGGGGGT | 1.02 ± 0.049
AAAAGGGGTC | 0.9959 ± 0.0053

Sequence | switch fluorescence ratio
AAAAGGGTCT | 1.02 ± 0.024
AAAAGGTTAT | 1.02 ± 0.027
AAAAGTAATT | 0.985 ± 0.021
AAAAGTAGTT | 1.01 ± 0.038
AAAAGTGTTT | 0.99 ± 0.033
AAAATAATGG | 0.998 ± 0.04
AAAATACTAT | 1.02 ± 0.026
AAAATAGTGT | 1.013 ± 0.01
AAAATATGCC | 1.02 ± 0.026
AAAATATGGT | 1.01 ± 0.033
AAAATCTGTT | 1.02 ± 0.061
AAAATGCGCA | 1.02 ± 0.037
AAAATGCGGA | 0.9951 ± 0.003
AAAATGGCGT | 0.9694 ± 0.004
AAAATGGGGT | 1.02 ± 0.052
AAAATGGTAT | 1.01 ± 0.038
AAAATGGTGT | 1.002 ± 0.0083
AAAATGGTTT | 0.994 ± 0.037
AAAATGTTCC | 1.19 ± 0.025
AAAATTAACG | 1.04 ± 0.028
AAAATTATCT | 1.01 ± 0.021
AAAATTATGG | 0.968 ± 0.02
AAAATTCTGG | 0.973 ± 0.034
AAAATTGCAT | 0.993 ± 0.021
AAAATTTAAT | 1.01 ± 0.016

Sequence | switch fluorescence ratio
AAAATTTAGG | 0.986 ± 0.03
AAACAAAAAT | 1.01 ± 0.012
AAACAATGTG | 0.972 ± 0.013
AAACAGAATG | 0.975 ± 0.014
AAACAGGTTG | 1.05 ± 0.019
AAACATGGAG | 1 ± 0.019
AAACATGGTG | 1.03 ± 0.022
AAACCCTGAG | 1.14 ± 0.2
AAACGATGTT | 1.02 ± 0.055
AAACGCAACC | 1.57 ± 0.089
AAACGCCTGC | 1.08 ± 0.026
AAACGGAG | 1.007 ± 0.0081
AAACGGATGG | 0.968 ± 0.016
AAACGGATTC | 0.999 ± 0.052
AAACGGGGGG | 0.99 ± 0.024
AAACGGGGTA | 1.01 ± 0.033
AAACGGGTTC | 1.01 ± 0.036
AAACGGTAGC | 1.07 ± 0.017
AAACGTACTT | 1.58 ± 0.086
AAACGTGAGT | 0.985 ± 0.01
AAACTAGCGG | 1.02 ± 0.016
AAACTAGCTG | 1 ± 0.025
AAACTCAACG | 1.08 ± 0.031
AAACTCTCCA | 1.04 ± 0.02
AAACTGGAT | 1.01 ± 0.033
